Experimental data: patent US6379670B1, “Methods for treatment of multiple sclerosis using peptide analogs of human myelin basic protein” (Neurocrine Biosciences, Inc., priority 1994, dated 2002)

Assays:
Assay type in all cases: cell-based, human
[1] = tested on: Dr2b-restricted T cell clone 5F6; test: Cytokine production (TNF-α, IFN-γ) by T cell clone 5F6, EIA; conditions: 3 μM MBP peptide, 24 hours, FIG. 21
Experimental: As discussed in detail below, the production of cytokines may also be assessed. In particular, TNF-α and IFN-γ production are especially interesting. These pro-inflammatory cytokines are thought to play a role in the pathogenesis of the disease. Briefly, T cell clone is incubated in the presence of stimulating MBP peptide and peptide analog or control peptide (SWM) or medium only. After a 24 hour incubation, the levels of TNF-α and IFN-γ in the supernatant are determined using commercially available EIA kits (Endogen, Cambridge, Mass.).
The ability of the peptide analog ligand to influence cytokine production was next measured. The Dr2b-restricted T cell clone 5F6 was incubated in the presence of 3 μM MBP peptide with either 10 μM of NBI-5788 (SEQ ID NO:7) or SWM or medium only. As a control, cells were cultured in the presence of medium alone. After 24 hours, supernatants were removed and the levels of tumor necrosis factor alpha (TNF-α) and interferon-y (IFN-γ) determined using commercially available EIA kits.

[2] = tested on: T cell lines LW 80, 88, 90 and 93; test: Specificity and phenotype of APL-reactive T cell lines from patient; conditions: 25 μg/ml antigen
Experimental: Four cell cultures from one patient ([…], 32% frequency) showing a response (> three-fold over background) were expanded into cell lines (LW 80, 88, 90 and 93) by incubation in IL-2 for 11-14 days (1-2 passages). Once sufficient cells had grown up, they were cultured with either medium alone or 25 μg/ml of either whole MBP, MBP (83-99) or APL NBI-5788. After 24 hours, the supernatants were collected and the level of cytokines determined (see FIGS. 22 to 26). The remaining cultures were pulsed with radiolabeled thymidine and the extent of incorporation determined.

[3] = tested on: peripheral blood mononuclear cells; test: Frequency of antigen-reactive T cells in PBMC of untreated MS patients and healthy donors (split-well); set-up: mean frequency of antigen-reactive T cells / frequency of antigen-reactive T cells in healthy subjects / antigen-reactive T cells, % Positive: concentration or dose not given beside the values
Experimental: Immune response to the peptide analog was assessed by measuring the frequency of proliferating peripheral blood T cells using a split-well microtiter method (i.e., number of positive wells {Δ cpm >1000, stimulation index>3} divided by the total number of wells assayed). Peripheral blood mononuclear cells (PBMC) were isolated from venous blood by Ficoll-Hypaque density gradient centrifugation, washed twice and resuspended in complete tissue culture medium (Iscove's modification of Dulbecco's medium containing 10% heat-inactivated, pooled, human A-B serum, 2 mM L-glutamine, 100 U/ml penicillin/streptomycin and 50 μg/ml gentamycin). PBMC from each patient were seeded at 10^5/well in 96 well, U-bottom microtiter plates containing 25 μg/ml whole MBP, 10 μg/ml NBI-5788 or medium alone in a volume of 200 μl. Three days later supernatants were collected and frozen at −80° C. and fresh medium containing IL-2 (10 U/ml) was added. IL-2-containg medium was refreshed on Day 7 and Day 11. On Day 14, the frequency of antigen response was determined by the “split well” technique. Briefly, cells from one primary well were split into replicate experimental wells in the presence of 10^5 freshly isolated autologous, irradiated peripheral blood mononuclear cells (APCs): one containing the original antigen (25 μg/ml) and one without antigen. Two days later supernatants were collected and the wells pulsed with 1 µCi/well [^3H]-thymidine ([…]) for the final 18 hours of culture. ^3H-Thymidine uptake was measured in a beta counter. […] The association between T cell frequency and NBI-5788 treatment was evaluated by χ^2 contingency analysis.

[4] = tested on: NBI-5788-reactive or MBP-reactive T cell lines from MS patients; test: Cross-reactivity of T cell lines (TCL) from MS patients, 3H-thymidine proliferation
Experimental: To evaluate the degree of NBI-5788-specific reactivity induced by NBI-5788 treatment, we determined whether NBI-5788-reactive T cell lines generated from untreated or NBI-5788-treated patients cross-reacted with whole MBP or MBP peptide 83-99. T cell lines were generated from positive cultures in the frequency analysis by an additional cycle of co-culture with antigen. Specificity of positive lines was tested by culturing 2×10^4 T cells/well in triplicate with whole MBP, MBP83-99, NBI-5788 or medium alone in the presence of 10^5 APCs in a final volume of 200 μl/well. Two days later supernatants were pooled from replicate wells and frozen at −80° C. Wells were then pulsed with [^3H]-thymidine (1 μCi/well) for the final 18 hours of culture.

[5] = subject MS-2, untreated MS patient
[6] = subject MS-3, untreated MS patient
[7] = subject MS-7, untreated MS patient
[8] = subject MS-8, untreated MS patient
[9] = subject MS-9, untreated MS patient
[10] = subject MS-10, untreated MS patient
[11] = subject MS-11, untreated MS patient
[12] = patient MS-1, dose 20 mg, TCL 4

B1: Whole MBP: whole human myelin basic protein (protein, UniProt P02686 1-304, looked up)
Myelin basic protein: MGNHAGKRELNAEKASTNSETNRGESEKKRNLGELSRTTSEDNEVFGEADANQNNGTSSQDTAVTDSKRTADPKNAWQDAHPADPGSRPHLIRLFSRDAPGREDNTFKDRPSESDELQTIQEDSAATSESLDVMASQKRPSQRHGSKYLATASTMDHARHGFLPRHRDTGILDSIGRFFGGDRGAPKRGSGKDSHHPARTAHYGSLPQKSHGRTQDENPVVHFFKNIVTPRTPPPSQGKGRGLSLSRFSWGAEGQRPGFGYGGRASDYKSAHKGFKGVDAQGTLSKIFKLGGRDSRSGSPMARR
- IFN-γ production [1]: ~160 pg/mL
- thymidine incorporation of T cell line ([2]; Line 80 of patient): 1,457 ± 195 cpm
- thymidine incorporation of T cell line ([2]; Line 88 of patient): 977 ± 121 cpm
- thymidine incorporation of T cell line ([2]; Line 90 of patient): 1,604 ± 328 cpm
- thymidine incorporation of T cell line ([2]; Line 93 of patient): 630 ± 28 cpm
- antigen-reactive T cells, Positive/total wells ([3]; Total of healthy donors): 3/96
- antigen-reactive T cells, Positive/total wells ([3]; Total of untreated MS patients): 56/312
- antigen-reactive T cells, % Positive ([3]; healthy donor HD-1): 6.3%
- antigen-reactive T cells, Positive/total wells ([3]; healthy donor HD-1): 3/48
- antigen-reactive T cells, % Positive ([3]; healthy donor HD-2): 0%
- antigen-reactive T cells, Positive/total wells ([3]; healthy donor HD-2): 0/48
- antigen-reactive T cells, % Positive [3, 5]: 6.8%
- antigen-reactive T cells, Positive/total wells [3, 5]: 3/44
- antigen-reactive T cells, % Positive [3, 6]: 25.0%
- antigen-reactive T cells, Positive/total wells [3, 6]: 11/44
- antigen-reactive T cells, % Positive [3, 7]: 11.4%
- antigen-reactive T cells, Positive/total wells [3, 7]: 5/44
- antigen-reactive T cells, % Positive [3, 8]: 52.3%
- antigen-reactive T cells, Positive/total wells [3, 8]: 23/44
- antigen-reactive T cells, % Positive [3, 9]: 16.7%
- antigen-reactive T cells, Positive/total wells [3, 9]: 8/48
- antigen-reactive T cells, % Positive [3, 10]: 2.3%
- antigen-reactive T cells, Positive/total wells [3, 10]: 1/44
- antigen-reactive T cells, % Positive [3, 11]: 11.4%
- antigen-reactive T cells, Positive/total wells [3, 11]: 5/44
- frequency of antigen-reactive T cells in healthy subjects ([3]; two healthy subjects, MBP-reactive cells detected in one of two): 6.3%
- mean frequency of antigen-reactive T cells ([3]; untreated MS patients (n=7)): 18.0±6.3%
- proliferative response of MBP-reactive TCL to antigen ([4]; patient MS-1, dose 20 mg, TCL 2): 25,700 ± 5,266
- proliferative response of MBP-reactive TCL to antigen [4, 12]: 9,498 ± 745
- proliferative response of NBI-5788-reactive TCL to antigen [4, 12]: 772 ± 341
- proliferative response of MBP-reactive TCL to antigen ([4]; patient MS-1, dose 20 mg, TCL 5): 13,102 ± 1,286
- proliferative response of MBP-reactive TCL to antigen ([4]; patient MS-1, dose 20 mg, TCL 10): 54,562 ± 207
- proliferative response of MBP-reactive TCL to antigen ([4]; patient MS-1, dose 20 mg, TCL 14): 23,564 ± 854
- proliferative response of MBP-reactive TCL to antigen ([4]; patient MS-1, dose 20 mg, TCL 26): 48,157 ± 1,207
- proliferative response of NBI-5788-reactive TCL to antigen ([4]; patient MS-1, dose 20 mg, TCL 36): 2,515 ± 532
- proliferative response of MBP-reactive TCL to antigen ([4]; patient MS-1, dose 20 mg, TCL 45): 63,810 ± 1,117
- proliferative response of MBP-reactive TCL to antigen ([4]; patient MS-2, dose 20 mg, TCL 14): 16,000 ± 1,133
- proliferative response of MBP-reactive TCL to antigen ([4]; patient MS-3, Pretreat., TCL 9): 9,736 ± 247
- proliferative response of NBI-5788-reactive TCL to antigen ([4]; patient MS-3, dose 20 mg, TCL 2): 1,785 ± 66
- proliferative response of NBI-5788-reactive TCL to antigen ([4]; patient MS-3, dose 20 mg, TCL 4): 298 ± 41
- proliferative response of NBI-5788-reactive TCL to antigen ([4]; patient MS-3, dose 20 mg, TCL 18): 437 ± 191
- proliferative response of NBI-5788-reactive TCL to antigen ([4]; patient MS-3, dose 20 mg, TCL 30): 557 ± 210
- proliferative response of MBP-reactive TCL to antigen ([4]; patient MS-4, dose 20 mg, TCL 7): 5,308 ± 1,269
- proliferative response of NBI-5788-reactive TCL to antigen ([4]; patient MS-4, dose 20 mg, TCL 18): 5,983 ± 5602
- proliferative response of NBI-5788-reactive TCL to antigen ([4]; patient MS-5, dose 20 mg, TCL 15): 13,151 ± 9,967
- proliferative response of NBI-5788-reactive TCL to antigen ([4]; patient MS-5, dose 20 mg, TCL 39): 6,717 ± 558
- proliferative response of NBI-5788-reactive TCL to antigen ([4]; patient MS-5, dose 20 mg, TCL 43): 3,584 ± 1,068
- proliferative response of NBI-5788-reactive TCL to antigen ([4]; patient MS-6, dose 10 mg, TCL 22): 2,167 ± 53
- proliferative response of NBI-5788-reactive TCL to antigen ([4]; patient MS-6, dose 10 mg, TCL 38): 935 ± 65
- proliferative response of NBI-5788-reactive TCL to antigen ([4]; patient MS-7, dose 5 mg, TCL 12): 1,343 ± 498
- proliferative response of NBI-5788-reactive TCL to antigen ([4]; patient MS-7, dose 5 mg, TCL 28): 2,326 ± 1,300
- proliferative response of MBP-reactive TCL to antigen ([4]; patient MS-7, dose 5 mg, TCL 46): 17,019 ± 2,294
- proliferative response of MBP-reactive TCL to antigen ([4]; patient MS-8, Placebo, TCL 26): 68,704 ± 19,348
- proliferative response of MBP-reactive TCL to antigen ([4]; patient MS-8, Placebo, TCL 28): 47,279 ± 4,539
- proliferative response of MBP-reactive TCL to antigen ([4]; patient MS-8, Placebo, TCL 38): 63,253 ± 5,006
- proliferative response of MBP-reactive TCL to antigen ([4]; patient MS-8, Pretreat., TCL 22): 91,447 ± 3,378
- proliferative response of MBP-reactive TCL to antigen ([4]; patient MS-8, Pretreat., TCL 31): 7,379 ± 123
- proliferative response of MBP-reactive TCL to antigen ([4]; patient MS-8, Pretreat., TCL 47): 47,975 ± 10,326
